Test results published in paper PMC13293227.

Molecular target: T1, GST-ZAKα 701-800 (Homo sapiens, UniProt Q9NYL2 701-800)
T1 sequence: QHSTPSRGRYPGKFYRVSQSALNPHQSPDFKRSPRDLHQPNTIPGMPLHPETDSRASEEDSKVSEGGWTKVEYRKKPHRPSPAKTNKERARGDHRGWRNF
Test: EMSA; supershift with GST antibody; EMSA: 20 mM HEPES pH 7.6, 3 mM MgCl2, 40 mM KCl, 5% glycerol, 2 mM DTT, 100 fmol probe in 20 µl, 20 min on ice; 4% native PAGE, 0.25x TBE
Settings: protein: recombinant; tags: GST; label: 5'-IRDye700; single strand, seemingly unstructured

AGCUUAGGAAUAUCAAUGUUAAGUAG (ssRNA) [ARE-IRDye700]
binding result: binds
